According to the supplement of paper PMC10567573:

B1: STK38L (parent)
chain: FLPGGDMMTLLMKKDTLTEEETQF
B2: KLHDC10 (parent)
chain: FGGTGIPFGESNGNGVHVCNVKYK

Variants of: B1
Assay: protein stability index of a GFP-peptide fusion (GPS, HEK-293T) (PSI 1-6); higher = more stable
Settings: c terminus: a fixed tail appended
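Further: lentivirally expressed fusions sorted by FACS into six bins by GFP to DsRed ratio, PSI derived from sequencing read proportions per bin multiplied by bin number.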

Protein stability index: each site, then its substitutions
K14: C 2.55 | G 2.25 | A 2.48 | S 2.69 | E 2.88 | Y 2.09 | R 1.96 | F 2.39 | V 1.62 | N 1.81 | Q 2.18 | M 1.97 | W 1.7 | T 2.27 | L 1.89 | P 2.46 | I 1.96 | D 2.92 | H 2.38
T22: N 2.31 | V 2.23 | M 1.97 | D 2.12 | A 2.53 | L 2.12 | F 2.25 | Q 2.21 | P 1.69 | G 2.08 | R 2.37 | C 2.05 | I 2.35 | W 2.4 | S 2.37 | Y 2.75 | H 2.06 | K 2.18 | E 3.21
L17: Q 1.98 | N 2.78 | I 2.11 | Y 2 | P 2.46 | W 1.75 | C 2.36 | A 2.95 | R 2.39 | V 1.94 | D 3.2 | F 1.96 | K 2.51 | G 2.37 | M 2.53 | T 2.63 | S 2.59 | E 3.35 | H 2.26
M12: D 4.06 | G 3.72 | P 3.5 | A 2.81 | C 3.16 | I 2.56 | Q 3.25 | N 3.86 | V 3.36 | E 3.68 | L 2.35 | S 3.48 | Y 2.84 | W 1.95 | K 3.69 | T 3.49 | H 3.69 | F 2.54 | R 3.48
E19: N 1.72 | I 2.02 | T 1.51 | S 2.61 | K 1.97 | Y 1.9 | W 2.14 | L 1.62 | C 1.73 | M 1.66 | R 1.78 | D 2.42 | P 2.11 | A 2.13 | G 2.35 | Q 2.12 | H 2.01 | F 1.87
D15: F 1.94 | H 2.35 | R 1.84 | A 1.62 | K 1.66 | T 1.86 | P 1.83 | Q 1.66 | C 2.16 | G 2.05 | V 2.2 | S 1.76 | I 1.75 | M 2.53 | Y 1.1 | E 3.01 | N 2.23 | L 2.56 | W 1.62
Q23: W 1.43 | K 2.45 | H 2.27 | F 1.24 | L 1.74 | C 2.24 | R 3.09 | S 2.91 | M 2.4 | T 2.09 | E 2.25 | N 2.37 | V 2.25 | D 3.06 | A 2.05 | I 2.12 | G 2.61 | P 2.21 | Y 1.88
E21: Y 1.88 | H 1.81 | D 2.07 | V 1.71 | P 1.65 | F 1.2 | N 1.84 | M 1.98 | T 1.74 | S 2.19 | L 1.56 | Q 2.04 | G 2.89 | C 2.01 | I 2 | A 1.94 | R 2.21 | K 2.16 | W 2.14
E20: P 1.82 | F 1.97 | A 1.86 | Y 2.08 | S 1.68 | R 1.95 | L 1.13 | I 1.4 | G 1.6 | C 2.27 | W 1.66 | N 2.5 | M 1.89 | K 1.75 | D 2.45 | T 1.86 | H 1.97 | Q 1.76 | V 1.79
L11: M 2.56 | S 3.41 | T 3.07 | Y 2.41 | Q 3.89 | W 1.56 | P 3.89 | V 3.18 | R 3.29 | N 3.4
T16: Y 2.24 | C 2.21 | L 1.74 | V 2.33 | H 2.48 | Q 2.17 | P 3.02 | R 2.11 | D 2.58 | I 2.36 | W 1.96 | N 2.51 | F 1.89 | G 2.43 | A 2.4 | M 2 | E 2.19 | S 2.13 | K 2.31
F24: M 2.4 | D 2.97 | V 2.65 | H 2.44 | G 2.84 | P 2.64 | W 2.09 | S 2.19 | Y 2.52 | K 2.53 | T 2.42 | Q 2.58 | N 2.65 | C 1.77 | A 2.28 | I 2.77 | L 3.02 | R 2.09 | E 2.35
K13: A 2.21 | C 1.67 | P 2.24 | M 2.28 | T 2.69 | Y 2.02 | I 1.87 | F 2.21 | S 2.56 | W 1.69 | N 2.49 | G 2.3 | E 3.03 | V 1.95 | R 2.21 | Q 2.42 | D 3.66 | L 2.05 | H 2.37
T18: S 2.83 | R 1.84 | G 2.01 | D 2.29 | P 2.68 | W 2.17 | C 1.57 | M 1.7 | A 2.1 | Y 2.18 | V 2.49 | Q 2.34 | K 2 | E 2.36 | H 2.05 | F 1.73 | I 1.58 | N 2.24 | L 2.15

Variants of: B2
Assay: as above
Settings: c terminus: a fixed tail appended

Protein stability index, by site and new letter:
G5: P 1.86 | I 3.13
I6: C 1.87 | T 1.84
G13: C 1.59
P7: F 3.68 | L 3.6 | S 2.14
E10: D 1.73 | L 2.43 | Q 2.94
Y23: D 3.3 | Q 2.28 | K 2.01
G15: I 1.77 | H 1.9 | C 1.58
N20: R 2.15 | A 2.35
F8: I 2.5 | L 3.04 | T 3.22 | K 3.84 | E 4.3 | Q 3.75 | D 4.16
G9: Q 1.88 | S 1.74 | E 3.16
V21: P 1.92 | I 2.78 | R 1.72 | Q 2.14 | Y 2.5 | K 1.98 | C 2.04
T4: R 1.93 | Q 1.6
G3: D 2.38
K22: F 1.63 | H 2.07 | D 2.35
N12: L 1.87 | R 1.51 | P 1.73 | F 1.41
F1: K 3.71
K24: Y 1.88 | L 2.06 | W 2.61 | P 2.11 | G 1.6
G2: S 2.11 | Q 2.02 | D 3.46 | M 2.7
C19: Y 2.06 | Q 2.29 | F 2.62 | R 2.35
H17: V 2.32 | N 2.03 | C 1.75 | L 2.08 | F 2.34 | K 2.01 | A 1.92
N14: Q 2.03 | I 1.2 | S 1.9 | K 1.81
S11: V 2.35
V18: I 1.74 | R 2.03 | T 2.27 | M 2.24
V16: T 1.98 | K 2.15
